Results as given in patent publication US20260242478A1 (published 2026).

How the values were obtained:
[1] = biological target: T1, anti-CD28 scFv (VH - linker 1 - VL) (biotinylated (site not stated)); assay: clonal phage ELISA; captured anti-CD28 scFv pre-incubated with soluble CD28 (competitor), anti-M13-HRP detection;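 further: crude clonal phage supernatants added to wells pretreated with soluble CD28 in blocking buffer, compared against wells given blocking buffer only, then bound phage measured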
T1 construct: Captured as biotinylated scFv on neutravidin coated plates in the clonal phage ELISA
T1 sequence (scFv, as listed by the source): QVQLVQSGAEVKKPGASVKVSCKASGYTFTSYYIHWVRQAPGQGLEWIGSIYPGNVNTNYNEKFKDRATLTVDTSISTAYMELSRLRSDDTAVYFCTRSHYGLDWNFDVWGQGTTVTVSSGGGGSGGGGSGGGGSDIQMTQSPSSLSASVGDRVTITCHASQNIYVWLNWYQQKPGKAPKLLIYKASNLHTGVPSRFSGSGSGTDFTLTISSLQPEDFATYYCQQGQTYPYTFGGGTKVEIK

[2] = biological target: T1, anti-CD28 scFv (VH - linker 1 - VL); assay: clonal phage ELISA; biotinylated anti-CD28 scFv on neutravidin plate, anti-M13-HRP detection;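 further: crude supernatants of phage clones were tested in wells pretreated with blocking buffer either alone or supplemented with soluble CD28 protein before phage addition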
Protocol: (§1) Clonal phage were harvested as crude supernatants and screened via standard enzyme linked immunosorbent assays (ELISAs). […] Prior to the addition of clonal phage, wells were incubated with blocking buffer and CD28 soluble protein or blocking buffer alone. Without washing or aspirating, clonal phage supernatants were then added to the wells and incubated for a short time. Wells were then washed followed by detection of bound phage using a horse radish peroxidase conjugated anti-M13 antibody.

[3] = biological target: T2, anti-CD28 scFv (VH - linker 1 - VL) (biotinylated (site not given)); assay: phage ELISA; biotinylated anti-CD28 scFv on neutravidin plate, clonal phage supernatant, anti-M13-HRP detection;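 further: before phage addition, wells were pretreated with soluble CD28 protein in blocking buffer, or with blocking buffer only as the comparison, then phage were added without washing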
T2 sequence (scFv, as listed by the source): as above

[4] = biological target: T2, anti-CD28 scFv (VH - linker 1 - VL); assay: phage ELISA as before, wells pre-incubated with soluble CD28 (competitor)
Protocol: as §1

[5] = biological target: T3, Anti-CD28 scFv (VH - linker 1 - VL) (biotinylated (site not stated)); assay: phage ELISA as above, wells pre-incubated with soluble CD28 (competitor);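 further: ELISA of crude clonal phage supernatants added to wells pre-treated with soluble CD28 in blocking buffer, bound phage read out with HRP-conjugated anti-M13 antibody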
T3 construct: Captured as biotinylated scFv on neutravidin plates in the panning ELISA
T3 sequence (scFv, as listed by the source): as above

[6] = biological target: anti-CD28 scFv (VH - linker 1 - VL) (biotinylated (site not stated)); assay: phage ELISA; biotinylated anti-CD28 scFv on neutravidin plate, clonal phage supernatant, anti-M13-HRP;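 further: before the phage were added, wells were pre-incubated with soluble CD28 protein in blocking buffer, or with blocking buffer alone, and were not washed in between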
Target sequence in this assay (scFv, as listed by the source): as above

Binder	CD28 scFv signal in presence of CD28 [1]	CD28 scFv signal [2]	CD28 scFv signal [3]	CD28 scFv signal in presence of CD28 [4]	other results
MDWCPRAMWNHCFN (tested as crude clonal phage supernatant) [Phage-198]	0.426	2.33			
MDWCPRDLWTECFA (tested as crude clonal phage supernatant; not shown: pIII of the bacteriophage to which the peptide is fused) [Phage-82, clonal phage peptide MDWCPRDLWTECFA]			2.63	0.151	
MDWCPRAMWHECFY (tested as crude clonal phage supernatant) [Phage-207]	0.129	1.92			
MDWCPIDLWHLCFY (tested as crude clonal phage supernatant; not shown: pIII of the bacteriophage to which the peptide is fused) [Phage-90, clonal phage peptide MDWCPIDLWHLCFY]			2.59	0.488	
MDWCPKDLWYLCFA (tested as crude clonal phage supernatant; not shown: pIII of the bacteriophage to which the peptide is fused) [Phage-87, clonal phage peptide MDWCPKDLWYLCFA]			2.61	0.213	
MDWCPRYLWSDCFA (tested as crude clonal phage supernatant; not shown: pIII of the bacteriophage to which the peptide is fused) [Phage-76, clonal phage peptide MDWCPRYLWSDCFA]			2.73	1.53	
MDWCPRYLWHECFA (tested as crude clonal phage supernatant; not shown: pIII of the bacteriophage to which the peptide is fused) [Phage-71, clonal phage peptide MDWCPRYLWHECFA]			2.63	0.429	
MDWCPRDLWHECFS (tested as crude clonal phage supernatant; not shown: pIII of the bacteriophage to which the peptide is fused) [Phage-79, clonal phage peptide MDWCPRDLWHECFS]			2.65	0.382	
FDFCPTTMWTYCQH (tested as crude clonal phage supernatant) [Phage-220]	0.081	0.086			
MDWCPRHMWYECFF (tested as crude clonal phage supernatant) [Phage-197]	0.298	2.34			
IDWCPMHMWDFCYN [Phage-390]					CD28 scFv signal in presence of CD28 [5]: 0.232
MDWCPRAMWDKCFF (tested as crude clonal phage supernatant) [Phage-212]	0.094	0.985			
MDWCPTDMWHHCFL (tested as crude clonal phage supernatant) [Phage-205]	0.126	2.2			
MNWCPTALWHVCFN (tested as crude clonal phage supernatant; not shown: pIII of the bacteriophage to which the peptide is fused) [Phage-67, clonal phage peptide MNWCPTALWHVCFN]			1.64	0.169	
TFGCPTTMWNRCFA (tested as crude clonal phage supernatant) [Phage-218]	0.068	0.181			
MFWCPTTMWNRCFT (tested as crude clonal phage supernatant; not shown: pIII of the bacteriophage to which the peptide is fused) [Phage-72, clonal phage peptide MFWCPTTMWNRCFT]			0.662	0.338	
MFWCPFDMWHFCFN (tested as crude clonal phage supernatant) [Phage-200]	0.469	2.29			
ITWCPSSMWNRCFI (tested as crude clonal phage supernatant; not shown: pIII of the bacteriophage to which the peptide is fused) [Phage-70, clonal phage peptide ITWCPSSMWNRCFI]			0.379	0.11	
MDWCPRSHWHVCYN (tested as crude clonal phage supernatant; not shown: pIII of the bacteriophage to which the peptide is fused) [Phage-75, clonal phage peptide MDWCPRSHWHVCYN]			1.95	0.281	
MDWCPKYLWSVCFF (tested as crude clonal phage supernatant; not shown: pIII of the bacteriophage to which the peptide is fused) [Phage-84, clonal phage peptide MDWCPKYLWSVCFF]			2.62	0.826	
MDWCPRDLWFLCYN (tested as crude clonal phage supernatant; not shown: pIII of the bacteriophage to which the peptide is fused) [Phage-91, clonal phage peptide …]			2.59	0.424	
MDWCPTDMWIVCFA (tested as crude clonal phage supernatant) [Phage-208]	0.172	1.5			
MDWCPRALWNVCFN (tested as crude clonal phage supernatant; not shown: pIII of the bacteriophage to which the peptide is fused) [Phage-89, clonal phage peptide MDWCPRALWNVCFN]			2.6	0.472	
MDWCPRHMWNVCFS (tested as crude clonal phage supernatant) [Phage-204]	0.13	2.25			
MNWCPSYMWDQCFA (tested as crude clonal phage supernatant) [Phage-213]	0.105	0.854			
MDWCPMDLWYQCFN (tested as crude clonal phage supernatant; not shown: pIII of the bacteriophage to which the peptide is fused) [Phage-85, clonal phage peptide MDWCPMDLWYQCFN]			2.62	0.187	

Binder	CD28 scFv signal in presence of CD28 [1]	CD28 scFv signal [2]	CD28 scFv signal [3]	CD28 scFv signal in presence of CD28 [4]	other results
MDWCPRFLWDECFN (tested as crude clonal phage supernatant; not shown: pIII of the bacteriophage to which the peptide is fused) [Phage-83, clonal phage peptide …]			2.63	0.483	
MDWCPPHLWHECFF [Phage-358 clonal phage peptide MDWCPPHLWHECFF]					CD28 scFv signal [6]: 1.45
MDWCPFYLWDECFN (tested as crude clonal phage supernatant; not shown: pIII of the bacteriophage to which the peptide is fused) [Phage-77, clonal phage peptide MDWCPFYLWDECFN]			2.67	0.291	
MDWCPIHMWADCFA (tested as crude clonal phage supernatant; not shown: pIII of the bacteriophage to which the peptide is fused) [Phage-69, clonal phage peptide MDWCPIHMWADCFA]			2.46	0.143	
IHWCPINMWDKCYN (tested as crude clonal phage supernatant) [Phage-206]	0.203	2.08			
MDWCPMYMWYECFA (tested as crude clonal phage supernatant; not shown: pIII of the bacteriophage to which the peptide is fused) [Phage-68, clonal phage peptide MDWCPMYMWYECFA]			2.48	0.358	
NYWCPSSMWNRCLH (tested as crude clonal phage supernatant) [Phage-219]	0.088	0.158			
MDWCPRYMWNECFN (tested as crude clonal phage supernatant) [Phage-215]	0.128	0.687			
MDWCPIHLWHYCFN (tested as crude clonal phage supernatant; not shown: pIII of the bacteriophage to which the peptide is fused) [Phage-88, clonal phage peptide MDWCPIHLWHYCFN]			2.6	0.453	
MDWCPMNMWYQCFN (tested as crude clonal phage supernatant) [Phage-216]	0.137	0.639			
MDWCPWDMWDKCFN (tested as crude clonal phage supernatant) [Phage-217]	0.108	0.586			
MDWCPRDMWDQCFD (tested as crude clonal phage supernatant) [Phage-201]	0.119	2.29			
IDWCPQDMWFYCFN (tested as crude clonal phage supernatant) [Phage-209]	0.16	1.42			
MDWCPRYLWNECFY (tested as crude clonal phage supernatant; not shown: pIII of the bacteriophage to which the peptide is fused) [Phage-66, clonal phage peptide MDWCPRYLWNECFY]			2.54	0.358	
MSWCPRDMWFYCYA (tested as crude clonal phage supernatant) [Phage-203]	0.174	2.25			
LHWCPTSMWTYCYY [Phage-392]					CD28 scFv signal in presence of CD28 [5]: 2.46
MDWCPRDMWLFCYN (tested as crude clonal phage supernatant; not shown: pIII of the bacteriophage to which the peptide is fused) [Phage-74, clonal phage peptide MDWCPRDMWLFCYN]			2.71	1.02	
MDWCPRHLWHECFN (tested as crude clonal phage supernatant; not shown: pIII of the bacteriophage to which the peptide is fused) [Phage-78, clonal phage peptide MDWCPRHLWHECFN]			2.65	0.704	
MDWCPRALWHECFN (tested as crude clonal phage supernatant; not shown: pIII of the bacteriophage to which the peptide is fused) [Phage-73, clonal phage peptide MDWCPRALWHECFN]			2.69	0.401	
MDWCPRHLWHECFF (tested as crude clonal phage supernatant; not shown: pIII of the bacteriophage to which the peptide is fused) [Phage-92, clonal phage peptide MDWCPRHLWHECFF]			2.58	0.373	
MDWCPRHLWAECFF (tested as crude clonal phage supernatant; not shown: pIII of the bacteriophage to which the peptide is fused) [Phage-86, clonal phage peptide MDWCPRHLWAECFF]			2.61	0.292	
TTWCPTSMWLHCFD (tested as crude clonal phage supernatant) [Phage-221]	0.072	0.074			
MDWCPRNMWAQCFA (tested as crude clonal phage supernatant) [Phage-199]	0.209	2.31			
MDWCPRDMWFECFA (tested as crude clonal phage supernatant) [Phage-210]	0.143	1.31			
MDWCPTYMWSECFN (tested as crude clonal phage supernatant) [Phage-214]	0.107	0.754			
MFWCPMDMWDQCFN (tested as crude clonal phage supernatant) [Phage-202]	0.207	2.26			
